The source of these data is PMC3835915, “Diversification of Fungal Specific Class A Glutathione Transferases in Saprotrophic Fungi” (PLoS ONE, 2013).

Substrate in this data set: S=C=NCCc1ccccc1
Nature of the data set: purified protein. The data set is classed as biochemical, Phanerodontia chrysosporium. Particulars: 5 mM GSH, pH 6.5, 2% acetonitrile.

B1: PcGSTFuA1 (Phanerodontia chrysosporium) (protein)
chain: MAQPIVFYDIPSNERIKHSPWSPNTWKIRYALNYKGLKYKTEWVEYPDIAGVVQKLGGKPTEKTPDGRDHYTLPVIYDPNTKKVVEDSAAIAKYLDETYPDTPKLFPAGTDAFQAAFLDFAWPVLGFPVFMLVILDTANSLLPRSHDYFRSTREQKFGKKLEELATEEEWAKVEAGLAKLKGYLDANGKGNDLLLMGAQGGITYSDIQIASFFVWAKIIWGEGSEKWKRLISLHDGKWAQFYAQFTKFEQVDV
notes: full length, untagged, pET-3d, E. coli BL21(DE3) pSBET; Ala inserted after Met1; dimer; primers encode N-term MAQPIVF, C-term EQVDV
Consider B1, for which the Km (as a rule, the substrate concentration at which the rate is half of its maximum) was determined as 119.0 ± 14.4 µM; the kcat (in general, the number of substrate molecules converted per active site and unit of time at saturation) came out at 8.515 ± 0.267 s⁻¹.
